# Assay results reported in the supplement of paper PMC9170038.
# Test system: K4 kissing-loop RNA reporter
# Assay: apparent KD of K4 kissing-loop reporter; higher = weaker reporter binding
# Conditions: Eterna round: R107; input ligand: none
# Protocol: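 RNA-MaP round R107: designed RNA switches with theophylline, tryptophan, arginine or FMN aptamers are transcribed on-chip within common flanks. They are titrated with a labelled K4 kissing-loop RNA reporter in RNA-MaP buffer (100 mM Tris pH 7.5, 80 mM KCl, 4 mM MgCl2), without ligand or with the indicated ligand. Median apparent KD per design.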
# 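Further: bound reporter read as fluorescence of individual clusters on recovered sequencing chips by microscopy, with normalized cluster intensities fitted with a binding model.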
row,Sequence,apparent KD of K4 kissing-loop reporter [nM]
1,ACAUGUGCCAGUGAUGUUGGCGUACGUGAUACCAGACGAAUAAAAGUCCCUUGGCAGCACAAAUAAGCCAAGAUAGAUGAAUGAU [#03 K4 Theophylline A Exclusion],203
2,GCAGUGAUGUUGCACGAGUACGGUAGAGUACGAGGACCGGUACGGCCGCCACUCGUACGGAACUGGCUAAUUUAUGGAAUGGUGA [II],1440
3,CGCCAUAACACGGCCGCCACUCAUCAAGCUCAGUGAUGUUGAGCAGCAGCUGCAAUCGCGAUUACGAGGACCGGGUGCUGUCUGU [theeternabot_sameState_KL_Trp_B_50],314
4,UGUGUUUACCUGACUCAGUGAUGUUGAGAAGGAGCGUGCAAAUGCACAGGUAGGUCGCUCAACCUAAAUUCAGGUGAGCACUAAA,323
5,AGCAGCAAAUCCUAGUGAUGUUAGGAUAUGUAGGAUAUCGGGAUACCGAGAAGGACAGAAGGAGGAGUGAUGUUCCUCAGCUGCA [FmnAX 23 #DoubleAptamer #DoubleK4 #SwitchBubble],104
6,AUUUUAAUCGCAGAUACCAGUCCAGAAUGAAUACUAUAGUGAUGUUAUAAUAAAGGGAAGGACCCUUGGCAGCUGUACUAUAUUA [AstrosSsTheB#9],445
7,AAGCUCAGCGUGACUCGAUAAGAGUCACAACGAGGACCGGUACGGCCGCCACUCGAAAUAAGGGAGUGAUGUUCUCGCUGAGCAA [#SwitchBubble 5 #StaticStem #K4Late],291
8,UAUAUACAUAGAUAGUUGUAUAUCGAGGAAGGAGCGUGCGCAGGCACAGGUAGGUCGCCUCAGCGCACGAGUGAUGUUCGUGGGC [Tezale],267
9,AAGAGCUAGGCGGCCGCCACUAGAUGUGAACACAUACAAGCCAGUGAUGUUGGUAUGAUGGACGGUAGGACCGGGCCUAGCUGAA [Exclusion - Tryptophan B (Freestyle 12)],394
10,GUCCACACUGCAGGAUAUGGAGAAGUAGCGAGGGAGUUUGGAAGCACACCUCUGGCAGUGAUGUUGCCAGAAGGGCGGUGCGGCG [Inlaindi],80.6
11,GGCCACGGGCGAGGAUAUGGGCAUGAUUCAUCCUGGAGUGAUGUUCCAGGUCCUACGUUUCGAGCACCAGAAGGCGUUUGUUGCU [Biazaqure],646
12,AUAAACUUGCAGUGAUGUUGCAAGUAAGACUAGGAUAUCAGGAAGCUGAGAAGGAGUCAUCUCCUUCAAACAUCACUAUGAAGGA [whbob_SS_FMNA__2th177],289
13,UUUGGUAGCGGUGUUGAUUAGGGAGCGGAAGGAGCGCCGAGGAGGGCAGGUAGGUCGCCGGAAUGUAGUGAUGUUGCAUAGAGGU [ExArgA.Ab],253
14,CCUAUCUCAUACGAUACCAGUGAAUUUAUAUUUAUAAGCAGUGAUGUUGCAUUCCAAGUACACCCUUGGCAGCGUAUGGGAUAGG [Ex Theophylline B K4 21],213
15,AGACUACUGAUAGGAUAUAACAUACUACUCGUAUACCAAAGGUAUACGAGAACCCUUCUAGUGAUGUUAGAAGGGUCGGUAGUCA [Omei KL FMN B Exc B v7],70.9
16,CAAUGAGUUUAAGAUGAUAUCAUCACAGAAGGAGCGAGUGAUAACUCAGGUAGGUCGCUGAAUUUGUCGAGUGAUGUUCGAUAGA [whbob_SS_Arginine_A_sa120],186
17,UUUUAAUAAGAGGAUACCAGUACAAAUAAAGUACAUUAAUAGUAGAGUGAUGUUCUAAAGUACCCUUGGCAGCUUAGAGUAAGUU [ExTheophylB.B],156
18,GUACCUUGGAAACAAGGACAGAUAACCGAAGGAGCGCGUGAAAACGCAGGUAGGUCGCGGAAGCAGUGAUGUUGCAAAAGAGAGC [Same State Arginine A GF 17],125
19,GUUAAGUCGCGAAGGAGCGCGAACUAACAACGCAGUGAUGUUGCGUUGUACGUAGUAUAAUCGCAGGUAGGUCGCGCGACAGGCC [Arg B SS t16],98.4
20,AGUGAUGUUGAGUGAUGUUAGUGAAGUGAUCGAGGACCGGUACGGCCGCCACUCGAGUGAUGAGUGAGUGAUGUUUGUUUAGUGA [hhbmullin],113
21,GGAUUCGGCACGGCCGCCACUUCCGGUGGCUGGUGUCAUGGUGCGCGUGAGUGAUGUUUAUGUGGGAGGACCGGGUGUUGAGUCC [whbob_Ex_Tryp_B_w44],834
22,AAGAAGAAUGGAAGGAGCGAGCAGAUAUAACCAGUGAUGUUGGAAAGCCUUAUUGCUUAAGCUCAGGUAGGUCGCCAAGAAGAGA [whbob_Ex_Arginine_B_2t152],179

# Same assay, conditions: Eterna round: R107; input ligand: theophylline 20 uM
row,Sequence,apparent KD of K4 kissing-loop reporter [nM]
1,GGGCCAUGGUUUUUGCUAGUGAUGUUAGACCGAGGACCGGUACGGCCGCCACUCGGCAAGUCUUUCGUUAGAUCUCUGGGAAGUC [theeternabot_exclusion_KL_Trp_A_45],1160
2,ACAUCGGUUGAGAGUGAUGUUCCUUGUGUUCGAGGACCGGUACGGCCGCCACUCGGGUAGAAAAUAACAGAUGUGUUUGAUUUUU [BDazzled - #16 SS Tryptophan A],308
3,GCCGUAGAUUGAAGGAGCGGCUUCAUCAAAUCUCUAGCCCACACCAGUGAUGUUGGUGUUAGCCAGGUAGGUCGCAAUCUACGGC,430
4,ACGAUCUUCGGCCUAUGAGUGAUGUUUAUGCGAGGACCGGUACGGCCGCCACUCGGGCGGUUAUUCACUACGCCUCUUCCGUCGA [theeternabot_exclusion_KL_Trp_A_37],517
5,GCCGUAGAUUGAAGGAGCGACAUAAACGAUGUUCUGGUAGUGAUGUUACCUUAGCAGGCAUGUCAGGUAGGUCGCAAUCUACGGC,162
6,GUAGGAUGAGGAGGAGGAUGAAUUACUGAAGGAGCGCAUAUUUAUGCAGGUAGGUCGCGGUAAAGAAGUAUAGUGAUGUUAUAUA [SSArgA.I],479
7,CCGCUGUAGUGCAUUAAGUGAUGUUUAGUGCAGGAUAUCUGGAAACAGAGAAGGGCACGUACUCGACGAGGCCAAUACAGCGGUU,310
8,AAGGUAUCUAGAUACAUUACUGAACUAGAUACCAGCAUCGAAAGAUGCCCUUGGCAGCUAGCAGUGAUGUUGCUAGCAAUAAGAA [Design3],112
9,CCUAUCUCAUACGAUACCAGUGAAUUUAUGUUUAUUAGCAGUGAUGUUGCAUUCCAAGUACACCCUUGGCAGCGUAUGGGAUAGG [Ex Theophylline B K4 23],193
10,ACAGUAGUGAUGUCUUUGAUAUUACUACUGCGAGGACCGGUACGGCCGCCACUCGCCCAUUUUUGGGUUGAGAGUGAUGUUCUCA [Skye_SS_TA2],482
11,CAUUCUAAAUGCAGUGAUGUUGCAACUGAUACCAGUAUCGAAAGAUACCCUUGGCAGCGGAAAACCGCUACGUUUUUUUAGAAUG [Ex Theophylline A K4 23],438
12,GGUAGCAUGGCGGCCGCCACUGCGAAUGACGGCCACGUGAAAGUUGCCGCAGAGUGAUGUUCUGGCAGGACCGGGCCAUGCUACC,477
13,GCGCGGGAGUGAUGUUCCAAGUGGUGUUAGCGAGGACCGGUACGGCCGCCACUCGUUACGGGCGGCCCGUAGGAUACACUGGCGC [Same State - Tryptophan A (Freestyle 18)],560
14,GCUAUGGUAGGAAGGAGCGCUUAAUUAUUAAUAAGAGUGAUGUUCGAUAAUAAAUAUUUAUAGCAGGUAGGUCGCCUACUAUAGC [KL-SSArg B22],243
15,GGCAUGGUGGCGCGGCUGCCAUGCGCUUGGGAGGAUAUGUUUCGUGACAGAAGGCCCAGUGAUGUUGGGUCUGUUCAAAAGGACU [Onrabe],137
16,UGAUACCAGACUGAUACCAGCCAGUGAUGUUGGCUGAAAUCAGGGUCAAAGACCCUGUCUGGCCCUUGGCAGCAGUCUGGUAUCU [TheoBX 19 #SwitchBubble #StaticStem],332
17,GCUAUGGUAGGAAGGAGCGCUAAUUUAUUUUUACGAGUGAUGUUCGGUAGUAGAUUGUUAAAGCAGGUAGGUCGCCUACUAUAGC [Arginine B K4 17],85.7

row,Sequence,apparent KD of K4 kissing-loop reporter [nM]
1,AAAUAGAUCAGUCAACCAGUGAUGUUGGAAGGAGCGUGCGAAAGCACAGGUAGGUCGCCAGAAUAAAAUUGGCUGAUCAAAAUAA,408
2,AACUGUCAAGGACAACAUUACUGGAGUGAUACCAGCAUCGAAAGAUGCCCUUGGCAGCACUAACUUGCAGUGAUGUUGCAAGUAA [BrourdMod 6 - Jieux - Exclusion - Theophylline A],192
3,CCACUAUUCUUGUCGGAGUGAUGUUCCGAUACCAGCAUAGAGAUGUGCCCUUGGCAGCGGUCUAUUCUACGCCCGUCUAUUUCAA [Somari],157
4,AAUUAGCCGUAAGAAUAGUGAUGUUAUUCACGAGGACCGGUACGGCCGCCACUCGAUAUUGGAAUAUUGAAUUUUUUAUUCUAAA [JR_SSTryptoA_Sub009],577
5,GCAACAUUGGGAGGAUAUCAUUCUGAGUGAUGUUCAGGGUUCAGCUAACGAAAGUUAGUUGUACCAUGAGAAGGCCUAAUGUUGC [Omei KL FMN B SS A v2],867
6,ACAUGUGCCAGUGAUGUUGGCGUACGUGAUACCAGACGAAUAAAAGUCCCUUGGCAGCACAAAUAAGCCAAGAUAGAUGAAUGAU [#03 K4 Theophylline A Exclusion],242
7,GCAGUGAUGUUGCACGAGUACGGUAGAGUACGAGGACCGGUACGGCCGCCACUCGUACGGAACUGGCUAAUUUAUGGAAUGGUGA [II],477
8,CGCCAUAACACGGCCGCCACUCAUCAAGCUCAGUGAUGUUGAGCAGCAGCUGCAAUCGCGAUUACGAGGACCGGGUGCUGUCUGU [theeternabot_sameState_KL_Trp_B_50],357
9,UGUGUUUACCUGACUCAGUGAUGUUGAGAAGGAGCGUGCAAAUGCACAGGUAGGUCGCUCAACCUAAAUUCAGGUGAGCACUAAA,234
10,AGCAGCAAAUCCUAGUGAUGUUAGGAUAUGUAGGAUAUCGGGAUACCGAGAAGGACAGAAGGAGGAGUGAUGUUCCUCAGCUGCA [FmnAX 23 #DoubleAptamer #DoubleK4 #SwitchBubble],102
11,AUUUUAAUCGCAGAUACCAGUCCAGAAUGAAUACUAUAGUGAUGUUAUAAUAAAGGGAAGGACCCUUGGCAGCUGUACUAUAUUA [AstrosSsTheB#9],304
12,AAGCUCAGCGUGACUCGAUAAGAGUCACAACGAGGACCGGUACGGCCGCCACUCGAAAUAAGGGAGUGAUGUUCUCGCUGAGCAA [#SwitchBubble 5 #StaticStem #K4Late],364
13,UAUAUACAUAGAUAGUUGUAUAUCGAGGAAGGAGCGUGCGCAGGCACAGGUAGGUCGCCUCAGCGCACGAGUGAUGUUCGUGGGC [Tezale],241
14,AAGAGCUAGGCGGCCGCCACUAGAUGUGAACACAUACAAGCCAGUGAUGUUGGUAUGAUGGACGGUAGGACCGGGCCUAGCUGAA [Exclusion - Tryptophan B (Freestyle 12)],381
15,GUCCACACUGCAGGAUAUGGAGAAGUAGCGAGGGAGUUUGGAAGCACACCUCUGGCAGUGAUGUUGCCAGAAGGGCGGUGCGGCG [Inlaindi],84.1
16,GGCCACGGGCGAGGAUAUGGGCAUGAUUCAUCCUGGAGUGAUGUUCCAGGUCCUACGUUUCGAGCACCAGAAGGCGUUUGUUGCU [Biazaqure],489
